# T1: ZBP1-Zα (UniProt Q9H171 8-70)
# T1 sequence: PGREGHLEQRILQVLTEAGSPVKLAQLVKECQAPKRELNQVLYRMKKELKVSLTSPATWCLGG
# T2: ADAR1-Zα (UniProt P55265 134-198)
# T2 sequence: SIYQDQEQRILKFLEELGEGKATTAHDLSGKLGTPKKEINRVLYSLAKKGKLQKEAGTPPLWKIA
# B1: A4 (ssDNA)
# DNA: TTCAGCACTCCACGCATAGCACGCCCGCCACCCCCTCTCCTGGCCATCCGCGCACACCTATGCGTGCTACCGTGAA
# B2: A1 (ssDNA)
# DNA: TTCAGCACTCCACGCATAGCCGGACGCGCCCCTCTTCCTTGTGTGCTCTCGCCCGCCCTATGCGTGCTACCGTGAA
# B3: A2 (ssDNA)
# DNA: TTCAGCACTCCACGCATAGCCGGCCAGCCAAGTCCCCGCTCCTCACGGCCCCCCGCCCTATGCGTGCTACCGTGAA
# B4: A11 (ssDNA)
# DNA: TTCAGCACTCCACGCATAGCCCGGTGCCGACCGAACCACCGTTGCCCTCCGCATGCCCTATGCGTGCTACCGTGAA
# B5: A12 (ssDNA)
# DNA: TTCAGCACTCCACGCATAGCACACGCGCGAAGACCCCCACCGATCCGGCCGCTCGTCCTATGCGTGCTACCGTGAA
# B6: A13 (ssDNA)
# DNA: TTCAGCACTCCACGCATAGCCCGGCCGACGGAACAATCCGTGTTCACTCGTCGCACCCTATGCGTGCTACCGTGAA
# B7: A14 (ssDNA)
# DNA: TTCAGCACTCCACGCATAGCACGCCGCCGAAGCAAACCCACGTCCTCGCCCACGGCCCTATGCGTGCTACCGTGAA
# B8: A15 (ssDNA)
# DNA: TTCAGCACTCCACGCATAGCCCGGCGTGAAGACCCGTGTGCTTTCAGGTCGCCCGCCCTATGCGTGCTACCGTGAA
# B9: A16 (ssDNA)
# DNA: TTCAGCACTCCACGCATAGCACACCGCCCCCCTCTACTCGGCACACTCGCCCGCCCCTATGCGTGCTACCGTGAA
# B10: A3 (ssDNA)
# DNA: TTCAGCACTCCACGCATAGCCGACCCGCGCCGCATTCACTGCCTACTGCCCGCCGCCCTATGCGTGCTACCGTGAA
# B11: A5 (ssDNA)
# DNA: TTCAGCACTCCACGCATAGCCCGCCCCCCGCTACTCCCCTCCTGAGTTGCCGTCGCCCTATGCGTGCTACCGTGAA
# B12: A6 (ssDNA)
# DNA: TTCAGCACTCCACGCATAGCCCGCACCCAGCCGCGACTGCCCCCTGGTTCGGCCCGCCTATGCGTGCTACCGTGAA
# B13: A7 (ssDNA)
# DNA: TTCAGCACTCCACGCATAGCGACGGGCCAACACCCCAGGTTCGCGTCCCCGCCTGCCCTATGCGTGCTACCGTGAA
# B14: A8 (ssDNA)
# DNA: TTCAGCACTCCACGCATAGCCCGCCACCACCAATCCTCACACTAGTCCGGCCCGGTCCTATGCGTGCTACCGTGAA
# B15: A9 (ssDNA)
# DNA: TTCAGCACTCCACGCATAGCCGACCACCCCCCCGACCCGGTGTCACTCCCCGCGCCCCTATGCGTGCTACCGTGAA
# B16: A10 (ssDNA)
# DNA: TTCAGCACTCCACGCATAGCACACGACCGAACTCGCCAACCCTGTCGTCCCGCCCGCCTATGCGTGCTACCGTGAA
# Target: T1, ZBP1-Zα
# Experiment: SPR
row,Binder,Kd [nM]
1,B1,255

# Target: T2, ADAR1-Zα
# Experiment: SPR
row,Binder,Kd [nM]
1,B2,31.7 ± 5
2,B3,25.7 ± 6.2
3,B4,104 ± 10
4,B5,104 ± 29.2
5,B6,29.5 ± 7.6
6,B7,96.7 ± 11.4
7,B8,103 ± 17
8,B9,103 ± 11.9
9,B1,2.1 ± 0.4
10,B10,16.1 ± 3.7
11,B11,2 ± 0.3
12,B12,20.2 ± 2.2
13,B13,27.7 ± 3.1
14,B14,99.8 ± 24.6
15,B15,26.5 ± 5.5
16,B16,99.2 ± 25.3

# Target: T2, ADAR1-Zα
# Experiment: SPR
# Remark: another data set of the same source
row,Binder,Kd [nM]
1,B1,1.8

# Reference: article doi:10.1101/2025.10.22.683608
